# In patent US20190241648A1 (STATEN BIOTECHNOLOGY B V, published 2019):
# Ends that are not written are not given here.
# T1: ApoC3 peptide D68S (human, cyclic (thioether))
# T1 peptide: DKFSEFWDLSPEV
# T2: ApoC3 peptide F64Y (human, thioether (positions not given here); not fully specified (bridges); also: cyclic (thioether), positions not given here)
# T2 peptide: DKFSEYWDLDPEV
# T3: ApoC3 peptide D66V (human, not fully specified; cyclic (thioether))
# T3 peptide: DKFSEFWVLDPEV
# T4: ApoC3 peptide S62F (human, not fully specified; cyclic (thioether))
# T4 peptide: DKFFEFWDLDPEV
# T5: ApoC3 peptide E63Q (human, cyclic (thioether))
# T5 peptide: DKFSQFWDLDPEV
# T6: ApoC3 peptide V71H (human, thioether (positions not given here); also: cyclic (thioether), ring places not given here)
# T6 peptide: DKFSEFWDLDPEH
# T7: ApoC3 peptide L67D (human, thioether (positions not given here); not fully specified (bridges); also: thioether between a C-terminal Cys side chain and a modified N-terminus, the Cys is not in the chain)
# T7 peptide: DKFSEFWDDDPEV
# T8: ApoC3 peptide D59I (human, thioether (positions not given here); not fully specified (C-terminus, bridges))
# T8 peptide: IKFSEFWDLDPEV
# T9: ApoC3 peptide L67G (human, thioether (positions not given here); not fully specified (bridges); also: thioether between a C-terminal Cys side chain and a modified N-terminus, the Cys is not in the chain)
# T9 peptide: DKFSEFWDGDPEV
# T10: ApoC3 peptide D68G (human, cyclic (thioether))
# T10 peptide: DKFSEFWDLGPEV
# T11: ApoC3 peptide W65P (human, cyclic (thioether))
# T11 peptide: DKFSEFPDLDPEV
# T12: ApoC3 peptide K60D (human, thioether (positions not given here); not fully specified (bridges); also: cyclic (thioether), positions not given here)
# T12 peptide: DDFSEFWDLDPEV
# T13: ApoC3 peptide L67Q (human, thioether (positions not given here); not fully specified (bridges); also: thioether between a C-terminal Cys side chain and a modified N-terminus, the Cys is not in the chain)
# T13 peptide: DKFSEFWDQDPEV
# T14: ApoC3 peptide L67I (human, thioether (positions not given here); not fully specified (bridges); also: thioether between a C-terminal Cys side chain and a modified N-terminus, the Cys is not in the chain)
# T14 peptide: DKFSEFWDIDPEV
# T15: ApoC3 peptide K60L (human, cyclic (thioether))
# T15 peptide: DLFSEFWDLDPEV
# T16: ApoC3 peptide D68N (human, cyclic (thioether))
# T16 peptide: DKFSEFWDLNPEV
# T17: ApoC3 peptide L67Y (human, thioether (positions not given here); not fully specified (bridges); also: thioether between a C-terminal Cys side chain and a modified N-terminus, the Cys is not in the chain)
# T17 peptide: DKFSEFWDYDPEV
# T18: ApoC3 peptide D59K (human, thioether (positions not given here); not fully specified (C-terminus, bridges))
# T18 peptide: KKFSEFWDLDPEV
# T19: ApoC3 peptide D68E (human, cyclic (thioether))
# T19 peptide: DKFSEFWDLEPEV
# T20: ApoC3 peptide E70S (human, cyclic (thioether))
# T20 peptide: DKFSEFWDLDPSV
# T21: ApoC3 peptide F61E (human, cyclic (thioether))
# T21 peptide: DKESEFWDLDPEV
# T22: ApoC3 peptide W65R (human, cyclic (thioether))
# T22 peptide: DKFSEFRDLDPEV
# T23: ApoC3 peptide P69Q (human, not fully specified; cyclic (thioether))
# T23 peptide: DKFSEFWDLDQEV
# T24: ApoC3 peptide E70C (human, cyclic (thioether))
# T24 peptide: DKFSEFWDLDPCV
# T25: ApoC3 peptide V71Y (human, not fully specified; cyclic (thioether))
# T25 peptide: DKFSEFWDLDPEY
# T26: ApoC3 peptide W65G (human, not fully specified; cyclic (thioether))
# T26 peptide: DKFSEFGDLDPEV
# T27: ApoC3 peptide P69T (human, not fully specified; cyclic (thioether))
# T27 peptide: DKFSEFWDLDTEV
# T28: ApoC3 peptide D59M (human, thioether (positions not given here); not fully specified (C-terminus, bridges))
# T28 peptide: MKFSEFWDLDPEV
# T29: ApoC3 peptide D66G (human, not fully specified; cyclic (thioether))
# T29 peptide: DKFSEFWGLDPEV
# T30: ApoC3 peptide E70T (human, cyclic (thioether))
# T30 peptide: DKFSEFWDLDPTV
# B1: Llama antibody 5E5 (antibody, V domains shown)
# VH: QLQLVESGGGLVQPGGSLRLSCAASGFTFGTYSMRWVRQVPRKALEWVSSISTDGGGTAYRDSVKGRFTISRDNAKNTLYLQMNNLKPEDTAIYYCVIAGYSDWGQGTQVTVSS
# VL: ATMLTQSPGSLSVVPGESASISCKTSQGLVHSDGKTYFYWFLQKPGQSPQQLIYQVSNRASGVPDRFTGSGSGTDFTLKISGVKAEDAGVYYCAQGTYYPHTFGSGTRLEIK
# notes: detected with goat anti-human IgG (Fc); also called mAb 5E5
# What was measured:
# Experiment in all cases: cyclic peptide substitution array
# ApoC3 peptide D68S = molecular target: T1, ApoC3 peptide D68S
# Summary of the method: (§1)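 Peptide microarrays incubated with antibody samples, then stained with goat anti-human IgG (Fc) DyLight680 and anti-HA DyLight800 control antibodies, scanned at intensity 7/7 (red/green). Secondary-only pre-stain checked background binding; framing HA peptides served as quality control; substitution effects read as changes in spot intensity.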
# ApoC3 peptide F64Y = molecular target: T2, ApoC3 peptide F64Y
# Summary of the method: as §1
# ApoC3 peptide D66V = molecular target: T3, ApoC3 peptide D66V
# Summary of the method: as §1
# ApoC3 peptide S62F = molecular target: T4, ApoC3 peptide S62F
# Summary of the method: as §1
# ApoC3 peptide E63Q = molecular target: T5, ApoC3 peptide E63Q
# Summary of the method: as §1
# ApoC3 peptide V71H = molecular target: T6, ApoC3 peptide V71H
# Summary of the method: as §1
# ApoC3 peptide L67D = molecular target: T7, ApoC3 peptide L67D
# Summary of the method: as §1
# ApoC3 peptide D59I = molecular target: T8, ApoC3 peptide D59I
# Summary of the method: as §1
# ApoC3 peptide L67G = molecular target: T9, ApoC3 peptide L67G
# Summary of the method: as §1
# ApoC3 peptide D68G = molecular target: T10, ApoC3 peptide D68G
# Summary of the method: as §1
# ApoC3 peptide W65P = molecular target: T11, ApoC3 peptide W65P
# Summary of the method: as §1
# ApoC3 peptide K60D = molecular target: T12, ApoC3 peptide K60D
# Summary of the method: as §1
# ApoC3 peptide L67Q = molecular target: T13, ApoC3 peptide L67Q
# Summary of the method: as §1
# ApoC3 peptide L67I = molecular target: T14, ApoC3 peptide L67I
# Summary of the method: as §1
# ApoC3 peptide K60L = molecular target: T15, ApoC3 peptide K60L
# Summary of the method: as §1
# ApoC3 peptide D68N = molecular target: T16, ApoC3 peptide D68N
# Summary of the method: as §1
# ApoC3 peptide L67Y = molecular target: T17, ApoC3 peptide L67Y
# Summary of the method: as §1
# ApoC3 peptide D59K = molecular target: T18, ApoC3 peptide D59K
# Summary of the method: as §1
# ApoC3 peptide D68E = molecular target: T19, ApoC3 peptide D68E
# Summary of the method: as §1
# ApoC3 peptide E70S = molecular target: T20, ApoC3 peptide E70S
# Summary of the method: as §1
# ApoC3 peptide F61E = molecular target: T21, ApoC3 peptide F61E
# Summary of the method: as §1
# ApoC3 peptide W65R = molecular target: T22, ApoC3 peptide W65R
# Summary of the method: as §1
# ApoC3 peptide P69Q = molecular target: T23, ApoC3 peptide P69Q
# Summary of the method: as §1
# ApoC3 peptide E70C = molecular target: T24, ApoC3 peptide E70C
# Summary of the method: as §1
# ApoC3 peptide V71Y = molecular target: T25, ApoC3 peptide V71Y
# Summary of the method: as §1
# ApoC3 peptide W65G = molecular target: T26, ApoC3 peptide W65G
# Summary of the method: as §1
# ApoC3 peptide P69T = molecular target: T27, ApoC3 peptide P69T
# Summary of the method: as §1
# ApoC3 peptide D59M = molecular target: T28, ApoC3 peptide D59M
# Summary of the method: as §1
# ApoC3 peptide D66G = molecular target: T29, ApoC3 peptide D66G
# Summary of the method: as §1
# ApoC3 peptide E70T = molecular target: T30, ApoC3 peptide E70T
# Summary of the method: as §1
binder,measurement,setting,value
B1,% of binding to wild-type peptide,ApoC3 peptide D68S,0.17%
same,% of binding to wild-type peptide,ApoC3 peptide F64Y,118%
same,% of binding to wild-type peptide,ApoC3 peptide D66V,0%
same,% of binding to wild-type peptide,ApoC3 peptide S62F,1.25%
same,% of binding to wild-type peptide,ApoC3 peptide E63Q,32.4%
same,% of binding to wild-type peptide,ApoC3 peptide V71H,72.8%
same,% of binding to wild-type peptide,ApoC3 peptide L67D,0.99%
same,% of binding to wild-type peptide,ApoC3 peptide D59I,49.1%
same,% of binding to wild-type peptide,ApoC3 peptide L67G,35.2%
same,% of binding to wild-type peptide,ApoC3 peptide D68G,3.59%
same,% of binding to wild-type peptide,ApoC3 peptide W65P,0%
same,% of binding to wild-type peptide,ApoC3 peptide K60D,200%
same,% of binding to wild-type peptide,ApoC3 peptide L67Q,3.99%
same,% of binding to wild-type peptide,ApoC3 peptide L67I,46.9%
same,% of binding to wild-type peptide,ApoC3 peptide K60L,107%
same,% of binding to wild-type peptide,ApoC3 peptide D68N,0%
same,% of binding to wild-type peptide,ApoC3 peptide L67Y,0.02%
same,% of binding to wild-type peptide,ApoC3 peptide D59K,30.6%
same,% of binding to wild-type peptide,ApoC3 peptide D68E,40.1%
same,% of binding to wild-type peptide,ApoC3 peptide E70S,55.2%
same,% of binding to wild-type peptide,ApoC3 peptide F61E,180%
same,% of binding to wild-type peptide,ApoC3 peptide W65R,0.02%
same,% of binding to wild-type peptide,ApoC3 peptide P69Q,24.3%
same,% of binding to wild-type peptide,ApoC3 peptide E70C,27.1%
same,% of binding to wild-type peptide,ApoC3 peptide V71Y,87.4%
same,% of binding to wild-type peptide,ApoC3 peptide W65G,0%
same,% of binding to wild-type peptide,ApoC3 peptide P69T,113%
same,% of binding to wild-type peptide,ApoC3 peptide D59M,57.7%
same,% of binding to wild-type peptide,ApoC3 peptide D66G,0%
same,% of binding to wild-type peptide,ApoC3 peptide E70T,83%
